Laboratory results from patent publication US6960343B2, “Toll/interleukin-1 receptor adapter protein (TIRAP)” (Yale University School of Medicine, priority 2001, dated 2005).

Tests used:
[1] = target: T1, CD4/TLR4 (constitutively active form of TLR4) (UniProt O00206+P06332); experiment: CD4/TLR4-mediated NF-κB activation, luciferase reporter, 293T cells; type: cell-based; settings: 50 ng, 250 ng, 1.0 μg construct
T1 construct: CD4 (fusion partner of the chimera); expressed in transfected cells; host or cells: 293T cells
T1 sequence (P06332+O00206 with tags, fused parts or gaps): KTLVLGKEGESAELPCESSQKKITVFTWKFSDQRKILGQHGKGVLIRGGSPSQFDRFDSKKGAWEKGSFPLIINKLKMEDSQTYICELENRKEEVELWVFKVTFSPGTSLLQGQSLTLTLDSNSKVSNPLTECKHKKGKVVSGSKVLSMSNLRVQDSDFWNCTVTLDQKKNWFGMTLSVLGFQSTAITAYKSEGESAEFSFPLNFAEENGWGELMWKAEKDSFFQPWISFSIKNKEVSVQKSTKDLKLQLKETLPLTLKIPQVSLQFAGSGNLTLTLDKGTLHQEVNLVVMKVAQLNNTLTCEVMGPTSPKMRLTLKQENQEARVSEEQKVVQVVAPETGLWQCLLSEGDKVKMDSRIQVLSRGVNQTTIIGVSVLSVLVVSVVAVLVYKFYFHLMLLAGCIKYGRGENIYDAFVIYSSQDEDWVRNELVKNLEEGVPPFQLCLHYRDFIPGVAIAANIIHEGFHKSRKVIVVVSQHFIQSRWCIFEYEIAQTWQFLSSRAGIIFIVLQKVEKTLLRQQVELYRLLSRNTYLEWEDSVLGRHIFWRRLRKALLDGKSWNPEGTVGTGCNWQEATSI
Procedure: To determine whether TIRAP P125H functions as a dominant negative, 293T cells were transfected with 0.25 μg of vector alone (pcDNA3) or CD4/TLR4 (a vector expressing a constitutively active form of TLR4) with or without increasing concentrations (50 ng, 250 ng, 1.0 μg) of either TIRAP P125H or MyD88 DN (a vector expressing MyD88 containing a proline to histidine mutation at the same position as TIRAP P125H) and the NF-κB-dependent luciferase reporter gene.

IL-1R = target: T2, IL-1R (Homo sapiens, UniProt P14778); experiment: IL-1R-induced NF-κB activity, luciferase reporter, 293T cells; type: cell-based
T2 construct: expressed in transfected cells; host or cells: 293T cells
T2 sequence (P14778 18-569): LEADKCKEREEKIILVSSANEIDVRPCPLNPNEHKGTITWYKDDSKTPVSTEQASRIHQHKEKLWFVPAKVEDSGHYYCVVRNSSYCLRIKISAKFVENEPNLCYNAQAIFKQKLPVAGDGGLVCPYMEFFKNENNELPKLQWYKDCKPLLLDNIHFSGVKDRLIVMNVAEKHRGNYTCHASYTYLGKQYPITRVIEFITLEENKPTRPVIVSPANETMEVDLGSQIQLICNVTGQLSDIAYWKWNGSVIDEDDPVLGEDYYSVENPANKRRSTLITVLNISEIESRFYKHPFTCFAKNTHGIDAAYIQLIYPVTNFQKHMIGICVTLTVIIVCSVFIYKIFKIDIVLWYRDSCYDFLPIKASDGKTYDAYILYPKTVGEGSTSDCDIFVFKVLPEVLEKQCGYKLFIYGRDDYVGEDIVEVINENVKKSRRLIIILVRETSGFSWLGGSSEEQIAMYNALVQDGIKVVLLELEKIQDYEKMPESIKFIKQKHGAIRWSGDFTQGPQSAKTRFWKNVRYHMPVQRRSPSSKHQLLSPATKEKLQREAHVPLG
T2 sequence (Q9NPH3 21-570 partner): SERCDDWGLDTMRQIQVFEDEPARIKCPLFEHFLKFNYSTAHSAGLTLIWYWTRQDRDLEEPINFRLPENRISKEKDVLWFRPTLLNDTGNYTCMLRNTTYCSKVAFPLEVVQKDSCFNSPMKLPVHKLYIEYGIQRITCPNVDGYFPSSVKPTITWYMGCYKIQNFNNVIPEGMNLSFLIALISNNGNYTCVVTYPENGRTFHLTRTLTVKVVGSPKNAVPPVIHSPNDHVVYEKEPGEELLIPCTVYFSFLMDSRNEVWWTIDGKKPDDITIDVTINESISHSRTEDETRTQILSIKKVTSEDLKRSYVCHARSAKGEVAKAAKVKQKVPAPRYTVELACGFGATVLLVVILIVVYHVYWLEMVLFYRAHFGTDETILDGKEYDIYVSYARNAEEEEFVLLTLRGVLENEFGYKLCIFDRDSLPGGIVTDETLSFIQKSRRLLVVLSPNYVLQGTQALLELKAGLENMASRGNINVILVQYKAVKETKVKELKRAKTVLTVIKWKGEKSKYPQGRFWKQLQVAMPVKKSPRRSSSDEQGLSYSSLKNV
Procedure: Unlike TLR4, neither IL-1R nor TLR9 can induce NF-κB in the absence of MyD88 (Kawai 1999; Schnare 2000; Adache 1998). To assess the possibility that TIRAP is the putative adapter in the MyD88-independent signaling pathway, we tested TIRAP P125H for its ability to inhibit NF-κB activity induced y IL-1R and TLR9. 293T cells were co-transfected with either vector alone (pcDNA3), IL-1R (0.1 μg), and IL-1R AcP (0.1 μg) [Dr. Medzhitov: Please indicate what the IL-1R AcP construct encodes] plasmid cDNAs, with or without increasing concentrations (10 ng, 50 ng, 200 ng) of TIRAP P125H plasmid and the NF-κB-dependent luciferase reporter gene.

inhibition of NF-κB activation mediated by CD4/TLR4 [1]: strongly inhibited
inhibition of NF-κB activity induced by IL-1B cytokine (IL-1R): did not inhibit
inhibition of NF-κB activity induced by co-transfected IL-1R and IL-1R AcP (IL-1R; 293T cells, 10 ng, 50 ng, 200 ng plasmid): did not inhibit
Substance: TIRAP P125H: vector encoding a mutant form of TIRAP containing a proline to histidine mutation at amino acid position 125
